Experimental data reported in patent US20250215412A1 (NOVOZYMES A S, published 2025).

How the values were obtained:
Assay in all cases: cell-based or functional assay
[1] = target: T1, Chryseobacterium sp-62563 deamidase polypeptide (second polypeptide, deamidase domain), wildtype (Chryseobacterium sp-62563)
T1 chain: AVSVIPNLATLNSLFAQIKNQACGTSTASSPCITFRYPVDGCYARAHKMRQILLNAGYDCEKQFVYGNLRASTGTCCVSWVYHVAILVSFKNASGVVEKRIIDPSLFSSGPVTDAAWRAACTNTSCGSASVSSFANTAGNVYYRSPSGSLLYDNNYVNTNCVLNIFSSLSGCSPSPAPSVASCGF

[2] = target: T2, Chryseobacterium sp-62563 deamidase V190M (Chryseobacterium sp-62563)
T2 chain: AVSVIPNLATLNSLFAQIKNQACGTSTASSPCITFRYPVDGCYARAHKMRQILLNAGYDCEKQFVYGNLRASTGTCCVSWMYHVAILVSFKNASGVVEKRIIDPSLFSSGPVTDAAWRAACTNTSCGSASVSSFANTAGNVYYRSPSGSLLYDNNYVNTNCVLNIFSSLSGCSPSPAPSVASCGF

[3] = target: T3, Chryseobacterium sp-62563 deamidase L259P (Chryseobacterium sp-62563)
T3 chain: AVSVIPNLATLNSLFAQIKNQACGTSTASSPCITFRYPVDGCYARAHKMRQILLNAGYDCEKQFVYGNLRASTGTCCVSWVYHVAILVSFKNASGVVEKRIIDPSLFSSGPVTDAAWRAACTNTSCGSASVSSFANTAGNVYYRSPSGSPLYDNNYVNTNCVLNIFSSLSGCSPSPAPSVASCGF

[4] = target: T4, Chryseobacterium sp-62563 deamidase L260K (Chryseobacterium sp-62563)
T4 chain: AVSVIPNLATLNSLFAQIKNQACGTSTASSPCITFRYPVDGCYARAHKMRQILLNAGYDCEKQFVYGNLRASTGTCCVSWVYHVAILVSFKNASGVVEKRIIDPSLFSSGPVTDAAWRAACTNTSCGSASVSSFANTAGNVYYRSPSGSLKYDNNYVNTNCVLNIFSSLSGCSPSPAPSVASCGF

[5] = target: T5, Chryseobacterium sp-62563 deamidase V190D (Chryseobacterium sp-62563)
T5 chain: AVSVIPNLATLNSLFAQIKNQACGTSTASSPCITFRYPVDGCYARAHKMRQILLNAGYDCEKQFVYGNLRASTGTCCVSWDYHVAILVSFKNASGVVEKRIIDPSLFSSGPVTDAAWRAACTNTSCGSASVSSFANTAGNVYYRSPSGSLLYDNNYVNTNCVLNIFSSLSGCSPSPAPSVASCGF

[6] = target: T6, Chryseobacterium sp-62563 deamidase V190Y (Chryseobacterium sp-62563)
T6 chain: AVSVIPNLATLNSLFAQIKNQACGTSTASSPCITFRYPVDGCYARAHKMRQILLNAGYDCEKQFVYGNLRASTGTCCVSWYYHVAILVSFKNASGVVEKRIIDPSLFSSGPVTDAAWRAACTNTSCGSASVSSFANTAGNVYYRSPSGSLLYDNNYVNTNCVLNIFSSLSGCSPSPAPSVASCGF

[7] = target: T7, Chryseobacterium sp-62563 deamidase V190K (Chryseobacterium sp-62563)
T7 chain: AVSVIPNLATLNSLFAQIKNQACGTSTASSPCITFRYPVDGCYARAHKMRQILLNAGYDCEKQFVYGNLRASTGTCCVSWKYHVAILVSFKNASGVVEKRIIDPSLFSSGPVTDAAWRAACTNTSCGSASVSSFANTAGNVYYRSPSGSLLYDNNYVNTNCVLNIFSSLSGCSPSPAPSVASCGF

[8] = target: T8, Chryseobacterium sp-62563 deamidase Y252S (Chryseobacterium sp-62563)
T8 chain: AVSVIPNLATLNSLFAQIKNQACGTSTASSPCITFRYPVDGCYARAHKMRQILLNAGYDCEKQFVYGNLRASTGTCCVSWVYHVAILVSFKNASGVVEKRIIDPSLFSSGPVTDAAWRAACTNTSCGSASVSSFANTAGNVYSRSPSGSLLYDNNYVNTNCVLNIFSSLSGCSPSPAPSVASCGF

[9] = target: T9, Chryseobacterium sp-62563 deamidase P255D (Chryseobacterium sp-62563)
T9 chain: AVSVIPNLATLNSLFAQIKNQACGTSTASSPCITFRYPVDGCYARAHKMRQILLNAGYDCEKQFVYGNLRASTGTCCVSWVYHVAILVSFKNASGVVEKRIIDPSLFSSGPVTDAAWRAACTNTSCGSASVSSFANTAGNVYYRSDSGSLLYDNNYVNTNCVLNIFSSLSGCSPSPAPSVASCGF

[10] = target: T10, Chryseobacterium sp-62563 deamidase P285D (Chryseobacterium sp-62563)
T10 chain: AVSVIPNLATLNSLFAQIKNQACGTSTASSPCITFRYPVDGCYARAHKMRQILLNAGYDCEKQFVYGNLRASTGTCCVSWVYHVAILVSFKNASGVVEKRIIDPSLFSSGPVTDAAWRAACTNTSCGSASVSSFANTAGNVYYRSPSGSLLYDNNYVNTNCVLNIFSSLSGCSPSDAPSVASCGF

[11] = target: T11, Chryseobacterium sp-62563 deamidase S258E (Chryseobacterium sp-62563)
T11 chain: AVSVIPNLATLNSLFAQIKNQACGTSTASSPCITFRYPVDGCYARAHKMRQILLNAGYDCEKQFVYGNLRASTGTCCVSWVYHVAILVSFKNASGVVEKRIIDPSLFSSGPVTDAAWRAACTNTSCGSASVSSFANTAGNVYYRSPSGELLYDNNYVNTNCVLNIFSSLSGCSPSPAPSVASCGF

B1: Chryseobacterium sp-62563 propeptide (first polypeptide, propeptide domain), wildtype (other)
chain: NQDPNLVAKESNETAMKDFGKTVPVGIEKEDGKFKISFMVTAQPYEIKDSKENAAYISMIKTAVENETPIHVFLKANTNEIAKVDKATDDDIRYFKSVFTKEVKEENRK
[1]
  NanoDSF thermal unfolding temperature: 85.3 ° C.
[2]
  NanoDSF thermal unfolding temperature: 82 ° C.
[3]
  NanoDSF thermal unfolding temperature: 80 ° C.
[4]
  NanoDSF thermal unfolding temperature: 75.5 ° C.
[5]
  NanoDSF thermal unfolding temperature: 75.4 ° C.
[6]
  NanoDSF thermal unfolding temperature: 81.5 ° C.
[7]
  NanoDSF thermal unfolding temperature: 76.4 ° C.
[8]
  NanoDSF thermal unfolding temperature: 73.4 ° C.
[9]
  NanoDSF thermal unfolding temperature: 81.4 ° C.
[10]
  NanoDSF thermal unfolding temperature: 65.8 ° C.
[11]
  NanoDSF thermal unfolding temperature: 78.3 ° C.
